A short description of this data set: label from the status in PepcDB records.

Regarding “IPGSPFTAKITDDSRRCSQVKLGSAADFLLDISETDLSSLTASIKAPSGRDEPCLLKRLPNNHIGISFIPREVGEHLVSIKKNGNHVANSPVSIMVVQSEIGD”, the protein production result was “not failed”.

With “IPSDGLTIPYGSGPKPIFRAQVGKKVYQSLINQATESVYITTPYLIIDYDLTETIKNAAMRGVDVRIITPYIPDKKFIQLVTRGAYPDLLSAGVRIYEYSPGFIHSKQMLVDEDFAVVGTINLDYRSLVHHYENAVLLYKTPSIREIARDFRNIFADSQEVYPHSIKTSWYQKLVKEIAQLFAPIL”, the protein production entry is listed as “failed”.

In the case of “IQVFVKNPDGGSYAYAINPNSFILGLKQQIEDQQGLPKKQQQLEFQGQVLQDWLGLGIYGIQDSDTLILSKKKG”, the protein production result is on record as “not failed”.

Regarding “IRRKINANVYDKVVLYAPTWRGIHGKATLDIEKLKNDLEKLADQDCHIVFRGHHMIEKLVSEQNISGITIVPSEIDTNELLGAIDILITDYSSIAFDFFVMNRPVIYYAYDIEQYNNERGLYFPLNELPGTVCFNDVELLNTLSGYLRNEIYFDASKGIDKFCKNDDGSVCGKVIEWFFF”, the protein production result is given as “failed”.

For “IRSIWENNGFGLMSSKTMTDFDYWISDFEKIGASQKEAEQLIVKAIEIAIDANARNYNYINAILKDWEQRGFKSVEEREA”, the protein production result is “not failed”.

On to “IRYAIERQRVEEALRHSEERFRVALKNSPIFVFNQDRDLRYTWIYNPIAGWTVEEMLGKQDSEIMSEQDAQCLTAIKYHVLTTGIGTRQVVSIGTPLGTKYYDLTVEPLRNESQDIVGITCACIDISERKLAEAKIREQ”, for which the protein production entry is recorded as “not failed”.

On to “ITERKQIEEALQKSGQRLRMTLESTSTNWWERDLITDQADWSEQSDHLLGYTPDSYEKNQDTFYKLVHPDDREHVQAGVNLAIATGEPYQGEFRLVQADGNCIWILGTGHVEYNEAGQPVRMSGLNIN”, for which the protein production entry is listed as “failed”.

“IYGYVEKATLIDQNLTLSAKLDTGAKSASLHAVNITEIEKKGIPYLRFTVPTKTGDYSFEGEYVGKVKIKVRSSETNPGLLRTTPIKRPVVLLNIKLGDKVRTIKVNLTNRKRFLYPLLLGRDAIIDFNGAVDPALTFTTKSK”: the protein production entry was “not failed”.

On to “KAFLEDMKKYAETFLEPWFKAPNKGTFQIVYKSRNNSHVNREEVIRELAGIVCTLNSENKVDLTNPQYTVVVEIIKAVCCLSVVK”, for which the protein production result is “not failed”.

Turning to “KCETKEKGAITAKELYTMMTDKNISLIIMDARRMQDYQDSCILHSLSVPEEAISPGVTASWIEAHLPDDSKDTWKKRGNVEYVVLLDWFSSAKDLQIGTTLRSLKDALFKWESKTVLRNEPLVLEGGYENWLLCYPQYTTNAKV”, the protein production entry is given as “not failed”.

“KDFLAMFSPKCGGCNRPVLENYLSAMDTVWHPECFVCGDCFTSFSTGSFFELDGRPFCELHYHHRRG”: the protein production entry is given as “not failed”.

Regarding “KFAYKVGIGLEVPFANTNIWSFQTGLNFISKGVKGDGVTDAWDVVDVTINQLYLELPLMVGARIHTASNFDLLFKGGPYLAYGVGGKTKIDGVSEKADTFGDDGLKRFDAGLGLGVAFEFGNIVVGVETGTSFTKVASGVSAHNLSALATIGYKF”, the protein production entry is reported as “failed”.

As to “KGDRLGAVVEWQDNTEALRLKAEADARALEESRVAGENARIRSALDNCTTNVMIADNDRRIIYMNHSVTDMLRGAESDLRKALPNFEVRRLIGSTMDEFHKNPAHQRDLLANLRSTYRAEIQVAGRTFSLVANPVFDADGERLGSVVEWKDRTAEVEIEREVSEIVRAASAGE”, the protein production result was “failed”.

Consider “KGGVWRNTEDEILKAAVMKYGKNQWSRIASLLHRKSAKQCKARWYEWLDPSIKKTEW”, for which the protein production entry is listed as “not failed”.

Turning to “KGIKKEIHINDKVIYYTHIEKGSSTVCFMFSGSGYNYDKPLFYYATMLMLEHKIDVVHIHYSYDEQVMNKPMEEVTKIMMDDINPVMKEVLKAEQYNDTIFLGKSLGTIPIANDLMKREEFLQSKMILLTPLLTFDTIFDSILHSNHEGFLVMGDKDHQYNADQVDQLHKTNLQIEVVKNANHSVNVGGYETENSIEAIAKIIGKLKEVVRTN”, the protein production result is listed as “failed”.

“KIDFISDVSCPWCVIGLRALDQALEALGDEVQAQIHFQPFELNPNMPAEGQDIKEHIAEKYGSTPEQIEAIHETIRERGAELGFTFGKGERRIYNTFDAHRLLHWAEQEGKQPALKQALFVAYFSELKDPSSHQTLADVAQKVGLDRLRAQAILDSDEFASEVREAEQLWTSRGITSVPTMVFNDQYAVSGGQPVEVFVSAIRQMLSES”: the protein production entry is “failed”.

In the case of “KIIGYARVSFNAQKDDLERQIQLIKSYAEENGWDIQILKDIGSGLNEKRKNYKKLLKMVMNRKVEKVIIAYPDRLTRFGFETLKEFFKSYGTEIVIINKKHKTPQEELVEDLITIVSHFAGKLYGMHSHKYKKLTKTVKEIVREEDAKEKE”, the protein production entry was “not failed”.

Take “KLFPRLFGLYRHVADLYQKMKALHPIMNDTLNRQAERWGLGKIYLSEEEFCQSEEKEKIRMLQSDFYDRMWYRLDFRGKLGSAKSFQCYYFFFRHS”: the protein production result is listed as “failed”.

In the case of “KLHYKQIVWVKLGNYRWWPAEICNPRSVPLNIQGLKHDLGDFPVFFFGSHDYYWVHQGRVFPYVEGDKSFAEGQTSINKTFKKALEEAAKRFQELKA”, the protein production entry is on record as “not failed”.

As for “KLKKKEYEQELKKLQVELVKLQEWVKHKGLKVVVLFEGRDAAGKGGVIKRITEKLNHRVCRVVALPAPTEKEKTQWYFQRYVAHLPSAGEIVLFDRSWYNRAGVEKVMGFCTPDEYEEFLRSCPEFERMLQRSGIILLKYWFSVSDEEQEKRFLGRINTPIKRWKFSPMDLESRHRWAEYSEAKDKMFAYTDTKNCPWWVVPSDSKQKARLNCISHLLSQIEYKALEYP”, the protein production entry is reported as “not failed”.

On to “KNKKVILFAPTFRGNGHRTAHYPFFKINFARLASYCEEHQATVLFKMHPFVRNKLNIPAIYSKYFLDISNYREVNDVLFITDILISDYSSLIYEFSVFKKPMLFYAFDLEDYIYTRDFYEPYETFVPGKIVKIFDELILALENNDFELEKVKPFLNKNFKYKDGKSSERLVKDLFNKFFQ”, for which the protein production entry is recorded as “failed”.

Regarding “KPREEKRTALSKVVIRRLPPGLTKEQLEEQLRPLPAHDYFEFFAADLSLYPHLYSRAYINFRNPDDILLFRDRFDGYIFLDSKGLEYPAVVEFAPFQ”, the protein production entry is listed as “failed”.

On to “KQQKDGSWLMDALIPLNELKYKLGLTTIEGEESEGFQTLNGFLTWWLGRLPHAGELVDYEGWQFEVLNVKHHRIVQVKVSRETESETTTDTNDGDANP”, for which the protein production entry is on record as “not failed”.

With “KSVFPFSNVLKQTLLKRATVFLGVPAIYTAMSKAKIPWYFRWFNRIRLFISGGAPLAEQTILDFKAKFPRAKLLEGYGLSEASPVVAVNTPERQKARSVGIPLPGLEAKAVDEELVEVPRGEVGELIVRGGSVMRGYLNMPAATDETIVNGWLKTGDFVTIDEDGFIFIVDRKKDLIISKGQNVYPREIEEEIYKLDAVEAAAVIGVKDRYADEEIVAFVQLKEGMDLGENEIRRHLRTVLANFKIPKQIHFKDGLPRNATGKVLKRVLKEQFDGNK”, the protein production result is “failed”.

Regarding “KVKIPYQKYKLDNGLTVILAPEGSDPLVHVDVTYHVGSAREEIGKSGFAHFFEHMMFQGSENVGDQEHFKIITEAGGTLNGTTNRDRTNYFETVPANQLEKMLWLESDRMGFLLDAVSQRKFEIQRSTVKNERAQRYDNRPYGLIWERMSEALYPEGHPYSWQTIGYVEDLERVDVNDLKAFFLRWYGPNNATITIGGDLDVEQTLAWVNKYFGSIPRGP”, the protein production result was “failed”.

With “KVKWTHEEDEQLRALVRQFGQQDWKFLASHFPNRTDQQCQYRWLRVL”, the protein production entry is given as “not failed”.

Regarding “LADGDFIDLDWHGPHQPHAPLVIVLHGLTGSSHSPYVKGLQQALQDRGWASVAVNWRGCSGEPNLLPRSYHSGASEDLAEIVSHLRAQRPLAPLYAVGYSLGGNVLLKYLGESGVASQLEAAAAVSVPFRLDHCADRIGQGFSKVYQAHFMREMLAYVQLKQRHFHARGQHEQLATLERLGQLTNLRTFWDFDGKVTAPLNGFRDAHDYYRRSSSHFFLGQNRTPTLIIHSSDDPFVSSHSLPTARELSPQTRFELHDRGGHVGFVDG”, the protein production entry was “failed”.

On to “LAMPPGNSHGLEVGSLAEVKENPPFYGVIRWIGQPPGLNEVLAGLELEDECAGCTDGTFRGTRYFTCALKKALFVKLKSCRPDSRFASLQP”, for which the protein production result is listed as “not failed”.

With “LANRIENVVSQERTRKKFESLVSDSPDGIVHLTTNGTILSVNPSMAGRLGADPDTLVGQQLSAVMDSEAANQRLEAGKSAVENGTATRSEDAVGGRHYHNQYIPVDSHRKSDTFQLVSRDIT”, the protein production result is recorded as “not failed”.

As for “LAPGLHFIATPIGAARDITLRALDILRAADVLAAEDTRTLRHLMEIHGIPLGGRPLVAYHDHNGEAARPRLLRALAEGRSVAYASEAGTPLVADPGFQLGRAAIAAGHPVLAAPGPS”, the protein production result is on record as “failed”.

“LAPTAQKMSKNYGVLASILLSQAAYESNYGSSLLSVKYHNIYSLPARPGQEHIYLKDNVYSKGKWQYQKVDFAVFRDWSSSMSSYLEELRQGRWGESTYKEVAGTTSYKVAAEKLQAAGFNSDPDYTKHLISIIETYNLVKYDR”: the protein production entry is on record as “failed”.

For “LAYQPGKLLVRGDTPLFKIERLLGIDLDHIEAETLAGLIYETLKRVPEEEEQMEVEGLRIIIKKMKGPKIVLAKVLKLD”, the protein production entry is recorded as “not failed”.

“LDAVVQEKFSGRRWTIPAKVYARPLELFNGLKLSREDFLRELDALGYRREPSVSGPGTVSVAASAVELNTRGFQFYEGAEPAQRVRVRFNGNYVSGLSQANGKELAVARLEPLLIGGLYPAHHEDRILVKLDQVPTYLIDTLVAVEDRDFWNHHGVSLKSVARAVWVNTTAGQLRQGGSTLTQQLVKNFFLSNERSLSRKINEAMMAVLLELHYDKRDILESYLNEVFLGQDGQRAIHGFGLASQYFFSQPLAELKLDQVALLVGMVKGPSYFNPRRYPDRALARRNLVLDVLAEQGVATQQEVDAAKLRPLGVTRQGSMADSSYPAFLDLVKRQLRQDYRDEDLTEEGLRIFTSFDPILQEKAETSVNETLKRLSGRKGVDQVEAAMVVTNPETGEIQALIGSRDPRFAGFNRALDAVRPIGSLIKPAVYLTALERPSKYTLTTWVQDEPFAVKGQDGQVWRPQNYDRRSHGTIFLYQGLANSYNLSTAKLGLDVGVPNVLQTVARLGINRDWPAYPSMLLGAGSLSPMEVATMYQTIASGGFNTPLRGIRSVLTADGQPLKRYPFQVEQRFDSGAVYLVQNAMQRVMREGTGRSVYSQLPSSLTLAGKTGTSNDSRDSWFSGFGGDLQAVVWLGRDDNGKTPLTGATGALQVWASFMRKAHPQSLEMPMPENVVMAWVDAQTGQGSAADCPNAVQMPYIRGSEPAQGPGCGSQNPAGEVMDWV”: the protein production entry is reported as “failed”.

Turning to “LEEHEQFNHKIVASAPVGISILRIRDGMIILSNELAHNYFRLLSHSDKQNILSIIAEKSSNIVDVVTNNHNHLQISFVNSRYQNEDVAICVLVDISARVKMERSLQNMATAAEQANQAKSMFLATVSHELRTPLYGIIGNL”, the protein production entry is reported as “failed”.

“LENDRTTFRIRNLDSGEIIWSGMGAVYPVYSPSFDHAADAFAFAFSSPADPPEIHLLRDAETKSSINSHLDGVSPYPAEIVEWKAKDGEDLYGILRLIDPKNPLIVYIHGGPTSFSYASFLDRTSIYLGYGFNVFAPNYRGSVGKGRRYAELNVGDLGGKDFDDVISGIEFLKNTGKIATDR”: the protein production entry is “failed”.

Consider “LENQISFRKALSDSLPNPTYVVNWQGNVISHNSAFEHYFTADYYKNAMLPLENSDSPFKDVFSNAHEVTAETKENRTIYTQVFEIDNGIEKRCINHWHTLCNLPASDNAVYICGWQDITETRDLINALEVEKNKAIKATVAKSQFLATMSHEIRTPISSIMGFL”, for which the protein production entry was “failed”.

For the origin of these results see a protein production outcome set (Wang et al. 2014).
